Here are results for twelve molecules from paper PMC2642989, “Enhancement of the Seed-Target Recognition Step in RNA Silencing by a PIWI/MID Domain Protein”.

Data set [1] concerns the target T1, AfPiwi (UniProt O28951 1-427).
T1 sequence: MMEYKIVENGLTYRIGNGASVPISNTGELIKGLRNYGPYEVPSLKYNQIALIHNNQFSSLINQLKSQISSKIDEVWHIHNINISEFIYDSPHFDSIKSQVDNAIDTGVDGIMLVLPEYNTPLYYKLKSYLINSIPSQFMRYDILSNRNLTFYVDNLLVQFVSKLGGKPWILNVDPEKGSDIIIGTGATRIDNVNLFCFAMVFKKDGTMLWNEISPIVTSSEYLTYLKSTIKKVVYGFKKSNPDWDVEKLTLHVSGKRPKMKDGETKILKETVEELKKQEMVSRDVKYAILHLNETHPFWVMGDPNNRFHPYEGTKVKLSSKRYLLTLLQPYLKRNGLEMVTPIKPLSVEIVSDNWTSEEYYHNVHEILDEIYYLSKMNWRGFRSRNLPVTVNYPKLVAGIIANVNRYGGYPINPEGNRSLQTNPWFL
Description: ITC; AfPiwi into preformed duplex; endothermic; ITC: 50 mM Tris pH 7.5, 150 mM KCl, 5% glycerol, 10 mM MgCl2, 1 mM DTT, 20 C; guide 3.5-24 uM in cell with 3-4 fold excess AfPiwi, target in syringe. The note with it: protein: recombinant; blunt.

The target in data set [2] is T1, AfPiwi. Description: ITC; target into AfPiwi-guide; 10 mM Mg2+; isolation 1490 nM; ITC: 50 mM Tris pH 7.5, 150 mM KCl, 5% glycerol, 10 mM MgCl2, 1 mM DTT, 20 C; guide 3.5-24 uM in cell with 3-4 fold excess AfPiwi, target in syringe. The note with it: protein: recombinant; T:G mismatch at guide position 10.
The target in data set [3] is T1, AfPiwi. Description: ITC; target into AfPiwi-guide; 10 mM Mg2+; isolation 206 nM; ITC: 50 mM Tris pH 7.5, 150 mM KCl, 5% glycerol, 10 mM MgCl2, 1 mM DTT, 20 C; guide 3.5-24 uM in cell with 3-4 fold excess AfPiwi, target in syringe. The note with it: protein: recombinant; T:G mismatch at guide position 8.
Data set [4] deals with T1, AfPiwi. Kind of data set: ITC; target into AfPiwi-guide; 10 mM Mg2+; isolation 1280 nM; ITC: 50 mM Tris pH 7.5, 150 mM KCl, 5% glycerol, 10 mM MgCl2, 1 mM DTT, 20 C; guide 3.5-24 uM in cell with 3-4 fold excess AfPiwi, target in syringe. The note with it: protein: recombinant; one mismatch.
Data set [5] addresses T1, AfPiwi. Description: ITC; target into AfPiwi-guide; 10 mM Mg2+; isolation 3.6 nM; ITC: 50 mM Tris pH 7.5, 150 mM KCl, 5% glycerol, 10 mM MgCl2, 1 mM DTT, 20 C; guide 3.5-24 uM in cell with 3-4 fold excess AfPiwi, target in syringe. The note with it: protein: recombinant; 11 bp, guide 3' overhang 1 nt.
Data set [6] addresses T1, AfPiwi. Kind of data set: ITC; target into AfPiwi-guide; 10 mM Mg2+; isolation 4600 nM; ITC: 50 mM Tris pH 7.5, 150 mM KCl, 5% glycerol, 10 mM MgCl2, 1 mM DTT, 20 C; guide 3.5-24 uM in cell with 3-4 fold excess AfPiwi, target in syringe. To be noted: protein: recombinant.
In data set [7] the target is T1, AfPiwi. Kind of data set: ITC; target into AfPiwi-guide; 10 mM Mg2+; isolation 794 nM; ITC: 50 mM Tris pH 7.5, 150 mM KCl, 5% glycerol, 10 mM MgCl2, 1 mM DTT, 20 C; guide 3.5-24 uM in cell with 3-4 fold excess AfPiwi, target in syringe. The note with it: protein: recombinant; A:G mismatch at guide position 4.
Data set [8] concerns the target T1, AfPiwi. Kind of data set: ITC; target into AfPiwi-guide; 10 mM Mg2+; isolation 7520 nM; ITC: 50 mM Tris pH 7.5, 150 mM KCl, 5% glycerol, 10 mM MgCl2, 1 mM DTT, 20 C; guide 3.5-24 uM in cell with 3-4 fold excess AfPiwi, target in syringe. The note with it: protein: recombinant; one mismatch.
Data set [9] addresses T1, AfPiwi. Description: ITC; target into AfPiwi-guide; 10 mM Mg2+; isolation 14600 nM; ITC: 50 mM Tris pH 7.5, 150 mM KCl, 5% glycerol, 10 mM MgCl2, 1 mM DTT, 20 C; guide 3.5-24 uM in cell with 3-4 fold excess AfPiwi, target in syringe. To be noted: protein: recombinant; one mismatch.
The target of data set [10] is T1, AfPiwi. Kind of data set: ITC; target into AfPiwi-guide; 10 mM Mg2+; isolation 1.83 uM; ITC: 50 mM Tris pH 7.5, 150 mM KCl, 5% glycerol, 10 mM MgCl2, 1 mM DTT, 20 C; guide 3.5-24 uM in cell with 3-4 fold excess AfPiwi, target in syringe. The note with it: protein: recombinant.
Data set [11] has as its target T1, AfPiwi. Kind of data set: ITC; target into AfPiwi-guide; 10 mM Mg2+; isolation 926 nM; ITC: 50 mM Tris pH 7.5, 150 mM KCl, 5% glycerol, 10 mM MgCl2, 1 mM DTT, 20 C; guide 3.5-24 uM in cell with 3-4 fold excess AfPiwi, target in syringe. To be noted: protein: recombinant; T:G mismatch at guide position 1.
Data set [12] addresses T1, AfPiwi. Kind of data set: ITC; target into AfPiwi-guide; 10 mM Mg2+; isolation 725 nM in text, 990 nM in Table 2; ITC: 50 mM Tris pH 7.5, 150 mM KCl, 5% glycerol, 10 mM MgCl2, 1 mM DTT, 20 C; guide 3.5-24 uM in cell with 3-4 fold excess AfPiwi, target in syringe. The note with it: protein: recombinant.

B1: Fig S3 preformed DNA duplex (dsDNA)
DNA 1: TTGAGTTT
DNA 2: AAACTCAA
modifications: 5' phosphate on strand 1
Consider B1, for which the binding result with AfPiwi [1] was “binds”.

B2: Fig 5G DNA T:G mismatch at position 10 (dsDNA)
DNA 1: TGTAGGTTGTAT
DNA 2: ATGCAACC
modifications: guide 5' phosphate
For B2, the dissociation constant Kd in the data set with AfPiwi [2] was found to be 2850 ± 350 nM.

B3: Fig 5F DNA T:G mismatch at position 8 (dsDNA)
DNA 1: TGTAGGTTGCAT
DNA 2: TGCGACCT
modifications: guide 5' phosphate
As to B3, the dissociation constant Kd in the data set with AfPiwi [3] came out at 672 ± 82 nM.

B4: Fig 5D RNA mismatch (dsRNA)
RNA 1: UGUAGGUU
RNA 2: ACCUGC
modifications: guide 5' phosphate
For B4, the Kd with AfPiwi [4] amounted to 2030 ± 150 nM.

B5: G12 guide / T11 target (dsDNA)
DNA 1: TGTAGGTTGCAT
DNA 2: TGCAACCTACA
modifications: guide (G12) 5' phosphate
B5: the Kd with AfPiwi [5] is 8.4 nM.

B6: Fig 3B RNA guide / RNA target (seed) (dsRNA)
RNA 1: UUGUUUGU
RNA 2: ACAAACA
modifications: guide 5' phosphate
With B6, the Kd with AfPiwi [6] amounted to 82.2 ± 2.7 nM.

B7: Fig 5A RNA A:G mismatch at position 4 (dsRNA)
RNA 1: UGUAGGUU
RNA 2: AACCGACA
modifications: guide 5' phosphate
B7: in the data set with AfPiwi [7], the Kd stood at 1160 ± 260 nM.

B8: Fig 5E DNA mismatch (dsDNA)
DNA 1: TGTAGGTT
DNA 2: AACCTGCA
modifications: guide 5' phosphate
For the molecule B8, in the data set with AfPiwi [8], the Kd is 452 ± 27 nM.

B9: Fig 5B RNA mismatch (dsRNA)
RNA 1: UUGUUUGU
RNA 2: ACAAGCA
modifications: guide 5' phosphate
Consider B9, for which, in the data set with AfPiwi [9], the Kd was 152 ± 16 nM.

B10: Fig 3C DNA guide / RNA target (seed) (DNA:RNA)
DNA: TGTAGGTT
RNA: AACCUAC
modifications: guide 5' phosphate
Take B10: the equilibrium dissociation constant (Kd) with AfPiwi [10] came to 28 nM.

B11: Fig 5H DNA T:G mismatch at position 1 (dsDNA)
DNA 1: TGTAGGTT
DNA 2: AACCTACG
modifications: guide 5' phosphate
Consider B11, for which the Kd in the data set with AfPiwi [11] is 17 ± 1.1 nM.

B12: Fig 3A DNA guide / DNA target (seed) (dsDNA)
DNA 1: TGTAGGTT
DNA 2: AACCTACA
modifications: guide 5' phosphate
B12: the Kd in the data set with AfPiwi [12] is 29.2 ± 2 nM.
